The assay addresses T1, His-NRF1 (Nuclear Respiratory Factor 1), bacterially expressed (UniProt Q16656 1-503).
T1 construct: Nuclear Respiratory Factor 1 (NRF1), cDNA cloned into pET28a; Vector pET28a; source: Escherichia coli BL21, expressed and purified
T1 sequence (looked up): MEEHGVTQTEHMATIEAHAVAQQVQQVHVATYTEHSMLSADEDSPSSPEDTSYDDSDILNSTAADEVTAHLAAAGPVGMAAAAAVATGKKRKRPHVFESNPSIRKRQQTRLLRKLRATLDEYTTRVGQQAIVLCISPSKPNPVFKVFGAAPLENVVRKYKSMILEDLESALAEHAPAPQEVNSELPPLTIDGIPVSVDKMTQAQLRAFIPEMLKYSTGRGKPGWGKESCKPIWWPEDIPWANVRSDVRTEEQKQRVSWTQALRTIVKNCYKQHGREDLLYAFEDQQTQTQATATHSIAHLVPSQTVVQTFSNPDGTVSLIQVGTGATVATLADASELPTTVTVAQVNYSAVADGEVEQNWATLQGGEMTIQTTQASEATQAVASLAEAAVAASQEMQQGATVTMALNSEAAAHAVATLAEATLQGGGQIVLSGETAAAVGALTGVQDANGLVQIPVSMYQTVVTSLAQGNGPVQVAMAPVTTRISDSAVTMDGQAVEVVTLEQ
The experiment in a line: pull-down; GST pull-down in vitro with bacterially expressed His-NRF1 and GST-SIAH2. As to conditions: both partners purified.

Here are results for one molecule from PMC6399320, “The SIAH2-NRF1 axis spatially regulates tumor microenvironment remodeling for tumor progression” (Nature Communications, 2019).

B1: GST-SIAH2, bacterially expressed (enzyme, UniProt O43255 1-324, looked up)
chain: MSRPSSTGPSANKPCSKQPPPQPQHTPSPAAPPAAATISAAGPGSSAVPAAAAVISGPGGGGGAGPVSPQHHELTSLFECPVCFDYVLPPILQCQAGHLVCNQCRQKLSCCPTCRGALTPSIRNLAMEKVASAVLFPCKYATTGCSLTLHHTEKPEHEDICEYRPYSCPCPGASCKWQGSLEAVMSHLMHAHKSITTLQGEDIVFLATDINLPGAVDWVMMQSCFGHHFMLVLEKQEKYEGHQQFFAIVLLIGTRKQAENFAYRLELNGNRRRLTWEATPRSIHDGVAAAIMNSDCLVFDTAIAHLFADNGNLGINVTISTCCP
notes: E3 ligase SIAH2, cDNA cloned into pGEX-4T-1; Vector pGEX-4T-1; source: Escherichia coli BL21, expressed and purified
With B1, the binding result was “binds”.
